# According to PMC5880795, “Cloning and expression of a novel α-1,3-arabinofuranosidase from Penicillium oxalicum sp. 68” (AMB Express, 2018):
# Test system: T1, O=[N+]([O-])c1ccc(O[C@@H]2O[C@@H](CO)[C@H](O)[C@H]2O)cc1
# T1 construct: signal peptide (predicted residues 1-30) removed; pPIC9K SnaBI/EcoRI, secreted from Pichia pastoris GS115; no tag mentioned
# Assay: purified protein
# Type: biochemical, Penicillium oxalicum
# Settings: 20 mM Na-acetate pH 4.5, 37 °C (standard assay; kinetic conditions not restated)
# Sequence of PoAbf62A (Penicillium oxalicum 114-2) (chain, as listed by the source): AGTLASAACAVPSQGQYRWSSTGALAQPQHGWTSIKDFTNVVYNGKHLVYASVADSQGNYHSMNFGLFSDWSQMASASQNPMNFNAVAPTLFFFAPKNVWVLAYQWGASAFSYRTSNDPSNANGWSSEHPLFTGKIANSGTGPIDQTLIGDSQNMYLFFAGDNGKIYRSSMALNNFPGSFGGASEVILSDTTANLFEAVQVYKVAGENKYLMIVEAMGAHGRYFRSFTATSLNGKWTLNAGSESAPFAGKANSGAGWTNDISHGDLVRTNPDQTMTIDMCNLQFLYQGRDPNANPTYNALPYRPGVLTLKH
substance,measurement,value
PoAbf62A (Penicillium oxalicum 114-2),Km,1360 ± 120 µM
same,kcat,0.27 ± 0.01 s⁻¹
